One block for each binder: values may come before it.
Assays:
[1] = target: T1, human IL-33 (R&D Systems, #3625-IL-010/CF) (human, UniProt O95760 112-270); test: cell-based or functional assay
T1 sequence (looked up): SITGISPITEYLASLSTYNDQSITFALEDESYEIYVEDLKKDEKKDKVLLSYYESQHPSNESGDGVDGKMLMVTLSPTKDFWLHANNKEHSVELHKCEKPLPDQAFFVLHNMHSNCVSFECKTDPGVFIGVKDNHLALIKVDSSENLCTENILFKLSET

[2] = target: T2, cynomolgus monkey N-terminal 6-His-tagged and C-terminal Avi-tagged IL-33 (S112-T270) (cynomolgus monkey); test: cell-based or functional assay
T2 chain: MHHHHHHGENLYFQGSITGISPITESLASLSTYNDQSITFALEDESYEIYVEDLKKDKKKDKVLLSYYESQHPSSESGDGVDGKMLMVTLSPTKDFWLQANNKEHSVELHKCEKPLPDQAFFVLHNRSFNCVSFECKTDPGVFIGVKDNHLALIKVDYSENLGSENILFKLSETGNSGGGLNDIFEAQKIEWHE

[3] = target: T1, human IL-33 (R&D Systems, …); test: cell-based or functional assay; remark: listed apart in the source
[4] = target: T1, human IL-33 (R&D Systems, …); test: cell-based or functional assay; remark: listed apart in the source
[5] = target: T1, human IL-33 (R&D Systems, …); test: SPR Biacore T200, 37 C
Outline: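 Antibodies captured via anti-Fc on CM5 chip; IL-33 injected at 3.7–100 nM (three-fold series), 4 min association, 10 min dissociation, 30 μl/min, ADA pH 7.4 buffer with 0.15 M NaCl, EDTA, Tween-20, at 25 °C or 37 °C. KD = koff/kon from 1:1 Langmuir fit; t1/2 = ln(2)/(60*koff).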

[6] = target: T1, human IL-33 (R&D Systems, …); test: cell-based or functional assay; remark: listed apart in the source
[7] = target: T3, human IL-33 (construct not stated) (human, UniProt O95760 112-270); test: cell-based or functional assay
T3 sequence (looked up): T1 sequence (looked up)

[8] = target: T1, human IL-33 (R&D Systems, …); test: cell-based or functional assay; remark: listed apart in the source
[9] = target: T2, cynomolgus monkey N-terminal …; test: cell-based or functional assay
human IL-33 N-His = target: T4, human IL-33 N-His (human); test: cell-based or functional assay
T4 chain: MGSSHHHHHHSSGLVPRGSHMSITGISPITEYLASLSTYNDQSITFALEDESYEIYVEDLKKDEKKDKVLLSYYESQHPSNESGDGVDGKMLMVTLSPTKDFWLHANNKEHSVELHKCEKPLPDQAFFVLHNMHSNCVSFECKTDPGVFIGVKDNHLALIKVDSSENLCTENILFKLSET

IC50; SEAP reporter (OD 620), HEK-BLUE IL-33/IL-1beta cells, 10 pM hIL-33 [1]: 9.2e-11 M
IC50; SEAP reporter (OD 620), HEK-BLUE IL-33/IL-1beta cells, 5 pM cyno IL-33 (5pM cIL-33-Nhis) [2]: 6.6e-08 M
IC50 (read off the curve) [3]: ~0.0007 nM
IC50, IL-33-induced phospho-p38 in primary human basophils, 500 pM hIL-33 [4]: 6.7e-13 M
Kd [5]: 0.462 nM
koff [5]: 0.000498 s⁻¹
kon [5]: 1.08e+06 M⁻¹ s⁻¹
t1/2 [5]: 23 min
Ph-p38 MFI at 0.4 nM Ab (500 pM human IL-33, primary basophils) [6]: 119 MFI
B1: H4H9659P (antibody, IgG4, V domains shown)
VH: QVQLVQSGAEVKKPGASVKVSCKASGYTFNSYGISWVRQAPGQGLEWMGWISSHNGNSHYVQKFQGRVSMTTDTSTSTAYMELRSLRSDDTAVYYCARHSYTTSWYGGFDYWGQGTLVTVSS
VL: DIQMTQSPSSVSASVGDRVTITCRASQGFSSWLAWYQQKPGKAPQLLIYAASSLQSGVPSRFSGSGSGSDFTLTISSLQPEDFATYYCQQANSFPLTFGGGTKVEIK
notes: also called RG7

IC50 (read off the curve); phospho-p38 MFI in CD123+ basophils (average from 2 donors), 10 ng/ml IL-33 [7]: ~0.3 nM
Kd [5]: 0.0889 nM
koff [5]: 0.000547 s⁻¹
kon [5]: 6.16e+06 M⁻¹ s⁻¹
t1/2 [5]: 21 min
HEK-BLUE SEAP reporter IC50 [8]: 0.0024 nM
IFN-γ secretion from primary NK cells, IC50 [8]: 0.03 nM
phospho-p38 in primary basophils, IC50 [8]: 0.00015 nM
HEK-BLUE SEAP reporter IC50 [9]: 4.2 nM
Ph-p38 MFI at 0.4 nM Ab (500 pM human IL-33, primary basophils) [6]: 34 MFI
IC50; SEAP reporter, HEK-BLUE IL-33 cells, 15 pM human IL-33 N-His, 20 h (human IL-33 N-His): 12 pM
B2: 10C12.38.H6.87Y.58I IgG4 (antibody, V domains shown)
VH: EVQLVESGGGLVQPGGSLRLSCAASGFTFSSFSMSWVRQAPGKGLEWVATISGGKTFTDYVDSVKGRFTISRDDSKNTLYLQMNSLRAEDTAVYYCTRANYGNWFFEVWGQGTLVTVSS
VL: EIVLTQSPATLSLSPGERATLSCRASESVAKYGLSLLNWFQQKPGQPPRLLIFAASNRGSGIPARFSGSGSGTDFTLTISSLEPEDFAVYYCQQSKEVPFTFGQGTKVEIKR
notes: also called anti-IL33 10C12.38.H6.87Y.58I IgG4

From US20190092852A1 (Genentech, published 2019)
